Measurements as given in patent publication US20120028912.

Target: T1, HIV-1 Tat protein, wild type
T1 chain: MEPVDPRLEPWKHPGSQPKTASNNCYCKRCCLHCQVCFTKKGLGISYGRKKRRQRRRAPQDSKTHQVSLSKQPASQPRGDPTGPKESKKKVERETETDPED

B1: p300/CBP-associated factor (P/CAF), HA-tagged (protein)
chain: MSEAGGAGPGGCGAGAGAGAGPGALPPQPAALPPAPPQGSPCAAAAGGSGACGPATAVAAAGTAEGPGGGGSARIAVKKAQLRSAPRAKKLEKLGVYSACKAEESCKCNGWKNPNPSPTPPRADLQQIIVSLTESCRSCSHALAAHVSHLENVSEEEMNRLLGIVLDVEYLFTCVHKEEDADTKQVYFYLFKLLRKSILQRGKPVVEGSLEKKPPFEKPSIEQGVNNFVQYKFSHLPAKERQTIVELAKMFLNRINYWHLEAPSQRRLRSPNDDISGYKENYTRWLCYCNVPQFCDSLPRYETTQVFGRTLLRSVFTVMRRQLLEQARQEKDKLPLEKRTLILTHFPKFLSMLEEEVYSQNSPIWDQDFLSASSRTSQLGIQTVINPPPVAGTISYNSTSSSLEQPNAGSSSPACKASSGLEANPGEKRKMTDSHVLEEAKKPRVMGDIPMELINEVMSTITDPAAMLGPETNFLSAHSARDEAARLEERRGVIEFHVVGNSLNQKPNKKILMWLVGLQNVFSHQLPRMPKEYITRLVFDPKHKTLALIKDGRVIGGICFRMFPSQGFTEIVFCAVTSNEQVKGYGTHLMNHLKEYHIKHDILNFLTYADEYAIGYFKKQGFSKEIKIPKTKYVGYIKDYEGATLMGCELNPRIPYTEFSVIIKKQKEIIKKLIERKQAQIRKVYPGLSCFKDGVRQIPIESIPGIRETGWKPSGKEKSKEPRDPDQLYSTLKSILQQVKSHQSAWPFMEPVKRTEAPGYYEVIRFPMDLKTMSERLKNRYYVSKKLFMADLQRVFTNCKEYNAAESEYYKCANILEKFFFSKIKEAGLIDK
Superinduction of Tat transactivation activity: as much as a 30-fold increase upon P/CAF stimulation
